Experimental data published in patent US20250296994A1 (SYSMEX, published 2025).

Columns and labels:
[1] = target: T1, recombinant Crtac1B fragment #5 (human, UniProt Q9NQ79 28-606); experiment: antigen immobilized ELISA; reference fCrtac1B (1-609)
T1 construct: also called fCrtac1B (1-608)
T1 sequence: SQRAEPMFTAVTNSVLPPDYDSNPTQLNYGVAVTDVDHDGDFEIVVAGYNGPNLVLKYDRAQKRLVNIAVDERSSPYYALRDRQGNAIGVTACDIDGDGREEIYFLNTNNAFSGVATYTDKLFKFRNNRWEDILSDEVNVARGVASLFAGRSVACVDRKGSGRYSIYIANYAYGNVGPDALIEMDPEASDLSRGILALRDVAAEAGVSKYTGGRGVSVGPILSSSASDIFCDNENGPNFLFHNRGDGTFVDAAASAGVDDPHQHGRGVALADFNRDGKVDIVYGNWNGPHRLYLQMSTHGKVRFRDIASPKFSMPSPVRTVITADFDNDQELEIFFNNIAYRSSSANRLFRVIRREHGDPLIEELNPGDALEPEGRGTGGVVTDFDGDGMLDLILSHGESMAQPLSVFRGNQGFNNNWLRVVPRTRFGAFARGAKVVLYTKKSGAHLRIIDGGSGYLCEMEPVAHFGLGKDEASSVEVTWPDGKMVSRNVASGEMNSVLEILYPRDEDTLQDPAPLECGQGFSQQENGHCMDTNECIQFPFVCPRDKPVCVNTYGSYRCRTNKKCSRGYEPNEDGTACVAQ
Method: The positive antigen and the negative control were diluted to a concentration of 20 μg/mL with dilution buffer I (20 mM potassium phosphate buffer (pH 7.4), 150 mM NaCl). A positive antigen (50 μL) and a negative control (50 μL) were added to each well of a 96 well plate, respectively. Then, the plate was incubated at 4° C. overnight, and the positive antigen and the negative control were immobilized in the well to obtain an antigen immobilized plate. Each well was washed twice with a washing solution (250 μL, 0.05% Tween (registered trademark) 20/20 mM potassium phosphate buffer (pH 7.4), 150 mM NaCl). To each well was added a blocking buffer (250 μL, 5% skim milk/20 mM potassium phosphate buffer (pH 7.4), 150 mM NaCl), and blocked at room temperature for 90 minutes. Culture supernatant (50 μL) of each hybridoma selected by primary screening was added to each well, and the cells were incubated at 37° C. for 1 hour. Each well was washed three times with a washing solution (250 μL). The HRP-labeled anti-mouse IgG antibody (MBL, product number 330) was diluted 1:1,000 with dilution buffer II (1% skim milk/20 mM potassium phosphate buffer (pH 7.4), 150 mM NaCl). […] The plate was set in a microplate reader (Thermo Fisher Scientific, Varioskan (registered trademark) Flash), and the color development intensity at 655 nm was measured for each well. […]

[2] = target: T2, antigen peptide P3 (BSA conjugate in the primary screening) (human, NH2-PEG6 at the N-terminus; C-terminal amide; disulfide bond between the two cysteine residues; carrier protein (BSA in the screening ELISA, KLH for immunization) conjugated to the N-terminal amino …); experiment: primary screening ELISA, BSA-conjugated antigen peptide immobilized, hybridoma culture supernatant
T2 peptide: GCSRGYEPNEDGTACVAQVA
Method: In order to select hybridomas producing monoclonal antibodies reactive to the antigen peptide, the culture supernatant of each hybridoma was measured by ELISA. In the primary screening, as a positive antigen, a peptide to which BSA was conjugated was used as a carrier protein for each of the antigen peptides P1, P2 and P3. Specific operations were as follows.
The positive antigen was diluted with PBS to a concentration of 1 μg/mL. Positive antigen (50 μL) was added to each well of a 96 well plate. Then, the plate was incubated at 4° C. for 17 hours, and a positive antigen was immobilized in the well to obtain an antigen immobilized plate. Each well was washed three times with PBS (250 μL). To each well was added a blocking buffer (250 μL, 0.5% skim milk/PBS) and blocked at room temperature for 1 hour. Culture supernatant (50 μL) of each hybridoma was added to each well, and the cells were incubated at room temperature for 1 hour. Each well was washed three times with PBS (250 μL). An ALP-labeled anti-mouse IgG goat antibody (SBI, product number 1030-04) was diluted 1:2,500 with PBS. A solution (50 μL) of this labeled antibody was added to each well, and the well was incubated at room temperature for 30 minutes. Each well was washed three times with PBS (250 μL). […] The plate was set in a microplate reader, and the emission intensity was measured for each well.

binding relative to the binding to fCrtac1B (1-609) [1]: ~0.1 fold
binding result [2]: binds
B1: 15C2 antibody (monoclonal antibody derived from the hybridoma of clone 15C2) (antibody, mouse IgG1, kappa, V domains shown)
VH: EVQLQQFGAELVKPGASVKISCKASGYTFTDYNMDWVKQSHGKSLEWIGDINPNYDSSSYNQKFKGKATLTVDKSSSTAYMELRSLTSEDTAVYYCTRSGGTYWGQGTLVTVSA
VL: DIQMNQSPSSLSASLGDTITITCHASQNINVWLSWYQQKPGNIPKLLIYKASNLHTGVPSRFSGSGSGTGFSLTISSLQPEDIATYYCQQAQSYPRTFGGGTKLEIKR
notes: Mouse IgG1; Used as hybridoma culture supernatant (ELISA) or purified from supernatant (IB, IP); also called anti-Crtac1B antibody; antibody of the present embodiment
